How the values were obtained:
Toxicity in nude mice = type: in vivo; conditions: for Bone Marrow Necrosis, average lesion severity: 0 = WNL, 1 = slight, 2 = mild, 3 = moderate, 4 = marked, 5 = severe
Description: 21G792 chromoprotein is well-tolerated in nude mice. Specifically, saline control vehicle or the chromoprotein in various doses was administered intravenously to six nude mice on days 1, 5, and 9.

KB = experiment: IC50 against P-GP expressing cells: KB; type: cell-based; conditions: P-GP level −, mean of two independent experiments
Excerpt: (§1) Human PGP (MDR1) is an ATP-dependent efflux pump which is capable of transporting many drugs across cell membranes. High level expression of this protein has been linked to multiple drug resistance of tumors. […] The protein component of the chromoprotein probably protects the chromophore from drug efflux mediated by MDR1, and may be responsible for the beneficial antitumor effects in colon cell lines which often express MDR1.

MCF-7 = experiment: Potency against human tumor cell lines: MCF-7; type: cell-based; conditions: MCF-7, Breast
Human PGP (MDR1) = biological target: T1, Human PGP (MDR1) (Homo sapiens, UniProt P08183); experiment: Transport by P-GP (MDR-1); type: cell-based; conditions: judged from IC50 in KB, KB-8-5, KB-V-1 cells
T1 construct: endogenous in cells; parental KB is P-GP negative
Excerpt: as §1

KB-V-1 = experiment: IC50 against P-GP expressing cells: KB-V-1; type: cell-based; conditions: KB-V-1, P-GP level +++; mean of two independent experiments
Excerpt: as §1

[1] = tested on: LoVo, HCT116, HT29, LOX, HN5 and PC-3 tumors; experiment: In vivo anti-tumor activity, subcutaneous human tumor xenografts; parameters: species or system athymic (nude) mice; conditions: intravenous in saline, further doses on days 5 and 9; all six xenograft models
Description: The human tumor cell lines or fragments LoVo (colon cancer); HCT116 (colon); HT29 (colon); LOX (melanoma); HN5 (head & neck); and PC-3 (prostate) were implanted under the skin of athymic (nude) mice and allowed to form a tumor mass. When the tumors reached a size of 90-200 mg, the saline control vehicle or various concentrations of the Actinomadura sp. 21G792 chromoprotein formulated in saline was administered intravenously to the mice. The mice received subsequent doses on days 5 and 9 and the relative tumor growth was observed. The results are shown in the graphs in FIG. 24 and FIG. 25. Inhibition of tumor growth of up to 80% for mice receiving the chromoprotein was observed.

SW620 = experiment: Potency against human tumor cell lines: SW620; type: cell-based; conditions: SW620, Colon
myelin basic protein = experiment: Specificity of digestion: myelin basic protein; type: biochemical
[2] = tested on: p53/p21 checkpoint in HCT116 (p21+/+ and p21−/−) cells; experiment: Induction of the G1/S (p53/p21) checkpoint, immunoblot; type: cell-based, human
Excerpt: HCT116 (p21+/+ and p21−/−) cells were exposed to the chromoprotein at various concentrations. […] Activation of the DNA damage checkpoint by the Actinomadura sp. […] 21G792 chromoprotein as shown by the cleavage of poly ADP ribose […] (PARP) (FIG. 23B). This is consistent with the lower IC50 value in the p21−/− cells.

[3] = tested on: HCT116 p21+/+ and −/− cells; experiment: COMET assay for DNA damage; type: cell-based, human; conditions: both p21-proficient and p21-deficient HCT116 cells
Excerpt: A COMET assay obtained from Trevigen, Inc. was used to detect DNA damage. HCT116 p21+/+ and −/− cells were subjected to various amounts of the 21G792 chromoprotein and mitoxantrone.

p21+/+ cells = experiment: Sensitivity of isogenic cell lines, p21+/+; type: cell-based, human; conditions: p21+/+ isogenic cell line; Mean ± SD, n = 3
Excerpt: (§2) The p53/p21 checkpoint monitors the integrity of the genome and blocks cell cycle progression in the event of DNA damage. Disruption of the checkpoint by deletion of the p21 gene results in failure to arrest in response to DNA damage ultimately leading to cell death through apoptosis. Since loss of this checkpoint is a hallmark of cancer cells, an isogenic pair of cell lines, wherein one pair of the cell line (p21+/+) has an intact p21 gene and one member (p21−/−) has a deletion in the p21 gene, can be used to screen for potential anti-tumor compounds by identifying molecules that preferentially induce apoptosis in p21-deficient cells.
(§3) The Actinomadura sp. 21G792 chromoprotein was added to an isogenic pair of cell lines (p21+/+ and p21−/−).

p21−/− cells = experiment: Sensitivity of isogenic cell lines, p21−/−; type: cell-based, human
Excerpt: as §2, §3

HN5 = experiment: Potency against human tumor cell lines: HN5; type: cell-based; conditions: HN5, Head & Neck
BT474 = experiment: Potency against human tumor cell lines: BT474; type: cell-based; conditions: BT474, Breast
HT29 = experiment: Potency against human tumor cell lines: HT29; type: cell-based; conditions: HT29, Colon
bovine serum albumin = bovine serum albumin (Bos taurus, UniProt P02769); experiment: Specificity of digestion: bovine serum albumin; type: biochemical; conditions: neutral/acidic protein
KB-8-5 = experiment: IC50 against P-GP expressing cells: KB-8-5; type: cell-based; conditions: KB-8-5, P-GP level +; mean of two independent experiments
Excerpt: as §1

Supercoiled φX174 DNA = experiment: DNA cleavage assay, gel electrophoresis; type: biochemical
Description: Supercoiled φX174 DNA was incubated with various concentrations of the 21G792 chromoprotein and analyzed by gel electrophoresis. […] Nicked refers to single strand breaks in the DNA and linear refers to double strand breaks.

HCT116 = experiment: Potency against human tumor cell lines: HCT116; type: cell-based; conditions: HCT116, Colon
Description: as §3

LoVo = experiment: Potency against human tumor cell lines: LoVo; type: cell-based; conditions: Colon

T1 sequence (P08183 whole entry): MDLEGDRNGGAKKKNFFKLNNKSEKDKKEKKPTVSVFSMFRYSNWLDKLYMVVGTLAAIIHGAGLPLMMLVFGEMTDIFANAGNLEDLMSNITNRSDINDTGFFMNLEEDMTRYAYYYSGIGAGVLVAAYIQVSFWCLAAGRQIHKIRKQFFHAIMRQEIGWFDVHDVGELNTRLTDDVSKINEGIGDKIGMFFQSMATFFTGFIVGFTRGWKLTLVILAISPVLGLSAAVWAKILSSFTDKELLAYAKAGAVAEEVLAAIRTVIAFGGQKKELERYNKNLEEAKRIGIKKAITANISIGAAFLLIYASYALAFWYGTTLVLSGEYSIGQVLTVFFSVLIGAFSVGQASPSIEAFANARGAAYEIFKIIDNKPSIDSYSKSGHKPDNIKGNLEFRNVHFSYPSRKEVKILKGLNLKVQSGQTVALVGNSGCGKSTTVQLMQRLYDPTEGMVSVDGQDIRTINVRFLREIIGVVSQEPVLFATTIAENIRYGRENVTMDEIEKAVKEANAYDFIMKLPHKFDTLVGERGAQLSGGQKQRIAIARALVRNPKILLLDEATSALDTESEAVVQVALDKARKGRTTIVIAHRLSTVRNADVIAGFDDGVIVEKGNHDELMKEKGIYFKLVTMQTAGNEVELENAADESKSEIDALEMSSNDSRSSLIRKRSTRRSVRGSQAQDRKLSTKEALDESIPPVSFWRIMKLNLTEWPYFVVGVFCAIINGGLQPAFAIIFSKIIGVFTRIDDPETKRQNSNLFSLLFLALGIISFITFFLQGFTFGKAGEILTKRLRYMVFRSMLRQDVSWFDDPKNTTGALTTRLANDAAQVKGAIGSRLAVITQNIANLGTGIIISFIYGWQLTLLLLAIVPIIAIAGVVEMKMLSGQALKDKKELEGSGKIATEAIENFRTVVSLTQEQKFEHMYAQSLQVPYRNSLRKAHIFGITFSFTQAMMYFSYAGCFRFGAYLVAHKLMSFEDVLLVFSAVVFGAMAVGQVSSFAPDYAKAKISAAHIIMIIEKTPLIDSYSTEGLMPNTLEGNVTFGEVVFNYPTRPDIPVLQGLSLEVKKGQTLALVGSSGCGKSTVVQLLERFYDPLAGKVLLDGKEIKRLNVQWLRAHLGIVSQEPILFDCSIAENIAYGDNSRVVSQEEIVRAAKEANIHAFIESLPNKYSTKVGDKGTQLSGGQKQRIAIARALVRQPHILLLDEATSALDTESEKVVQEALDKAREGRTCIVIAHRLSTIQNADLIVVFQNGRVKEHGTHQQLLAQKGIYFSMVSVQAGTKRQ
Chain of bovine serum albumin (P02769 25-607): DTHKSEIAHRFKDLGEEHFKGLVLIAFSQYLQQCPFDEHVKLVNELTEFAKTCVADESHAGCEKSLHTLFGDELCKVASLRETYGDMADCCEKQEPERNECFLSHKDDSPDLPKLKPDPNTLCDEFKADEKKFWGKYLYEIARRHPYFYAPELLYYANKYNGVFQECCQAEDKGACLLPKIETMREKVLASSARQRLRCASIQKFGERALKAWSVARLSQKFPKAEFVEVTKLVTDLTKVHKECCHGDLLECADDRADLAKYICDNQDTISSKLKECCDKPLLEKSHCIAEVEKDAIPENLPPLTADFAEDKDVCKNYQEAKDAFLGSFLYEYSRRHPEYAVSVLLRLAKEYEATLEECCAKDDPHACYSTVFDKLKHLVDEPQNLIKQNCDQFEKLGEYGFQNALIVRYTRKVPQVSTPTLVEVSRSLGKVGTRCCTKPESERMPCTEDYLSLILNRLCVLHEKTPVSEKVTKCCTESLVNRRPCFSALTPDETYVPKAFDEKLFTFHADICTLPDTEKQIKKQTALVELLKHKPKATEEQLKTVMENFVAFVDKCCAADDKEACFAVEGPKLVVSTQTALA

B1: Actinomadura sp. 21G792 chromoprotein: non-covalent complex of an apoprotein and a chromophore comprising a nine-membered enediyne, produced by Actinomadura sp. 21G792 (NRRL 30778) (protein)
chain: DTVTVNYDCVGYPSDIAVTIDAPATAGVGDTATFEVSSVVTTGAPQDLPAGEVVTDMAIVVGGAQSGTITASGLTNEATPAGQPVNMVGGEAQITFTSAGSVTFTPSTTTQVDNGAQCTVVGEAPVGATTVVS
Lymphocytes (Toxicity in nude mice; 3 mg/kg): 290 cells/μl
WBC (Toxicity in nude mice; 3 mg/kg): 1430 cells/μl
Bone Marrow Necrosis, number with lesion/total number examined (Toxicity in nude mice; 3 mg/kg i.v. days 1, 5, 9): 6/6
Bone Marrow Necrosis, average lesion severity (Toxicity in nude mice; 3 mg/kg): 1.7
Lymphocytes (Toxicity in nude mice; 6 mg/kg): 40 cells/μl
WBC (Toxicity in nude mice; 6 mg/kg): 1280 cells/μl
Bone Marrow Necrosis, number with lesion/total number examined (Toxicity in nude mice; 6 mg/kg i.v. days 1, 5, 9): 6/6
Bone Marrow Necrosis, average lesion severity (Toxicity in nude mice; 6 mg/kg): 3
tolerability (Toxicity in nude mice; intravenous on days 1, 5 and 9): well-tolerated
adverse effects in the intestine, nerves, spinal cord, liver, or at the site of injection (Toxicity in nude mice; mouse, in vivo): No adverse effects
IC50 (KB): 10 ng/mL
IC50 (MCF-7): 2 ng/mL
MDR1 substrate (Human PGP (MDR1)): poor MDR1 substrate
IC50 (KB-V-1): 142 ng/mL
Inhibition of tumor growth [1]: up to 80%
IC50 (SW620): 2 ng/mL
cleavage of myelin basic protein (myelin basic protein): cleaves
induction of the p21 protein [2]: seen in the p21+/+ cells only
phosphorylation of serine-15 of p53 [2]: phosphorylation of the serine-15 amino acid residue in p53
activation of the p53 checkpoint ([2]; HCT116 p21+/+ and p21−/−, various concentrations): activation of the p53 checkpoint for all tested concentrations
induction of apoptosis (PARP cleavage) ([2]; p21−/− compared with p21+/+ cells): preferentially observed in p21−/− cells
concentration at which dose-dependent DNA strand breaks occur [3]: > 100 ng/mL
IC50 (p21+/+ cells): 90000 ± 32000 ng/mL
Selectivity Ratio (p21−/− cells; IC50 p21+/+ versus p21−/−): 13
IC50 (p21−/− cells; p21−/− isogenic cell line, Mean ± SD, n = 3): 7000 ± 2000 ng/mL
IC50 higher for p21+/+ cells than for p21−/− cells (p21−/− cells; text statement of the selectivity): 13 fold
IC50 (HN5): 4 ng/mL
IC50 (BT474): 47 ng/mL
IC50 (HT29): 8 ng/mL
cleavage of bovine serum albumin (bovine serum albumin): not neutral/acidic proteins such as bovine serum albumin
IC50 (KB-8-5): 6 ng/mL
need of a reducing agent (dithiothreitol, DTT) for DNA cleavage (Supercoiled φX174 DNA): did not require a reducing agent
DNA cleavage (Supercoiled φX174 DNA; various concentrations, reaction progressed over 24 hours): induced single strand breaks and double strand breaks
IC50 (HCT116): 1000 ng/mL
IC50 (LoVo): 2 ng/mL
